In assay [1] the target is T1, recombinant Flag-RecQL4 (human, UniProt O94761 1-1208).
T1 construct: also called purified Flag-RecQL4; source: E. coli (BL21 in the results; Rosetta (DE3) in the methods), IPTG-induced, purified
T1 sequence (looked up): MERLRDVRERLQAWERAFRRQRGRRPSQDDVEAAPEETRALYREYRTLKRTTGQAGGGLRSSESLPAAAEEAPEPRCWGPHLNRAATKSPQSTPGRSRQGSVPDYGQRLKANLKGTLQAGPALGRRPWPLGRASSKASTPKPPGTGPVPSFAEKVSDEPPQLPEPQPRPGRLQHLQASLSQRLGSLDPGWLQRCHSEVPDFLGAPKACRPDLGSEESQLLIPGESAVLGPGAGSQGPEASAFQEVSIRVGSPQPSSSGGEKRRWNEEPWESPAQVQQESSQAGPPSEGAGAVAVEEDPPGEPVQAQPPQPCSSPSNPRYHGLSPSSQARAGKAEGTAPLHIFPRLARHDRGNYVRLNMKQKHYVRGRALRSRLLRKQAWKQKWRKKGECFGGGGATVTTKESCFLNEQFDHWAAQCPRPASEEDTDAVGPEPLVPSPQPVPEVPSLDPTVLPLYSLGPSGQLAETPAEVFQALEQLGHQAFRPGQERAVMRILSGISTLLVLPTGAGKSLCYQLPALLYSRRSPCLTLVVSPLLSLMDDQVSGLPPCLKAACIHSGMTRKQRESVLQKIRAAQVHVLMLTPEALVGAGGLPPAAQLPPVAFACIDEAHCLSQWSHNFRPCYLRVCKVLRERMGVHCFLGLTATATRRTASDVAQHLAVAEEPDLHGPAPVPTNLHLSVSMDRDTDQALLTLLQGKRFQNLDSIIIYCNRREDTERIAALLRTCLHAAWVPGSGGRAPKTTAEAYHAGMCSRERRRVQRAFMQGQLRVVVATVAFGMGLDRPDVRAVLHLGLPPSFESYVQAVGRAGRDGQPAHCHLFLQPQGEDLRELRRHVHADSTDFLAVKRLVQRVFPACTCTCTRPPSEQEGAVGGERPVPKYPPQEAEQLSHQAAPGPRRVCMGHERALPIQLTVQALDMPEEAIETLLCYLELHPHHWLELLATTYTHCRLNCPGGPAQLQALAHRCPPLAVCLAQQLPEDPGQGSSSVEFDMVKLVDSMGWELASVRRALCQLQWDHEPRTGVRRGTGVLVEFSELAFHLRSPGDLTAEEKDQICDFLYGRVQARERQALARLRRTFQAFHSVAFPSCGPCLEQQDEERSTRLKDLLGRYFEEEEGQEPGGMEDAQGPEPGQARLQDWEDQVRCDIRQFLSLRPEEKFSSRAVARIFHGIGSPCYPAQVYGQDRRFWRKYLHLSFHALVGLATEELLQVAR
Description: pull-down; Flag-RecQL4 immobilised on M2 beads at 4 °C overnight, GST fusion proteins added at 4 °C for 4 h; GST-RNF8 with increasing input of GST-WRAP53β; western blot. To be noted: both partners purified. Background: A western blot detects proteins with antibodies after separation by electrophoresis.

In assay [2] the target is T1, recombinant Flag-RecQL4. Description: pull-down; GST fusion protein immobilised on glutathione Sepharose 4B at 4 °C overnight, incubated with purified Flag-RecQL4 at 4 °C for 4 h; western blot. To be noted: both partners purified.

B1: GST-RNF8 (natural protein, UniProt O76064-1 1-485, looked up)
chain: MGEPGFFVTGDRAGGRSWCLRRVGMSAGWLLLEDGCEVTVGRGFGVTYQLVSKICPLMISRNHCVLKQNPEGQWTIMDNKSLNGVWLNRARLEPLRVYSIHQGDYIQLGVPLENKENAEYEYEVTEEDWETIYPCLSPKNDQMIEKNKELRTKRKFSLDELAGPGAEGPSNLKSKINKVSCESGQPVKSQGKGEVASTPSDNLDPKLTALEPSKTTGAPIYPGFPKVTEVHHEQKASNSSASQRSLQMFKVTMSRILRLKIQMQEKHEAVMNVKKQTQKGNSKKVVQMEQELQDLQSQLCAEQAQQQARVEQLEKTFQEEEQHLQGLEIAQGEKDLKQQLAQALQEHWALMEELNRSKKDFEAIIQAKNKELEQTKEEKEKMQAQKEEVLSHMNDVLENELQCIICSEYFIEAVTLNCAHSFCSYCINEWMKRKIECPICRKDIKSKTYSLVLDNCINKMVNNLSSEVKERRIVLIRERKAKRLF
notes: RNF8; also called purified recombinant GST-RNF8; source: E. coli BL21, purified (GST beads)
As to B1, in assay [1], the binding result was “binds”.

B2: GST-WRAP53β (natural protein)
chain: not shown
notes: WRAP53β; also called purified recombinant GST-WRAP53β; source: E. coli, purified (GST beads)
In the case of B2, the binding result in assay [2] is “binds”.

For the origin of these results see PMC7935965, “RNF8 ubiquitinates RecQL4 and promotes its dissociation from DNA double strand breaks” (Oncogenesis, 2021).
